Assay results: patent US20100184658A1 (published 2010)

Experiments:
Assay in all cases: cell-based or functional assay
ABL1 G250E = ABL1 G250E (UniProt P00519 1-1130, limits assumed)
PRKCA (PKC alpha) = PRKCA (PKC alpha) (UniProt P17252 1-672, limits assumed)
[1] = molecular target: MINK1 Misshapen-like kinase 1 (UniProt Q8N4C8 1-320, limits assumed)
[2] = molecular target: CAMK1D (CaMKI delta) Calcium/calmodulin-dependent protein kinase I delta (UniProt Q8IU85 1-385, limits assumed)
RPS6KA5 (MSK1) = RPS6KA5 (MSK1) (UniProt O75582 1-802, limits assumed)
BRSK1 (SAD1) = molecular target: T1, BRSK1 (SAD1) (UniProt Q8TDC3 1-778, limits assumed)
T1 sequence (looked up): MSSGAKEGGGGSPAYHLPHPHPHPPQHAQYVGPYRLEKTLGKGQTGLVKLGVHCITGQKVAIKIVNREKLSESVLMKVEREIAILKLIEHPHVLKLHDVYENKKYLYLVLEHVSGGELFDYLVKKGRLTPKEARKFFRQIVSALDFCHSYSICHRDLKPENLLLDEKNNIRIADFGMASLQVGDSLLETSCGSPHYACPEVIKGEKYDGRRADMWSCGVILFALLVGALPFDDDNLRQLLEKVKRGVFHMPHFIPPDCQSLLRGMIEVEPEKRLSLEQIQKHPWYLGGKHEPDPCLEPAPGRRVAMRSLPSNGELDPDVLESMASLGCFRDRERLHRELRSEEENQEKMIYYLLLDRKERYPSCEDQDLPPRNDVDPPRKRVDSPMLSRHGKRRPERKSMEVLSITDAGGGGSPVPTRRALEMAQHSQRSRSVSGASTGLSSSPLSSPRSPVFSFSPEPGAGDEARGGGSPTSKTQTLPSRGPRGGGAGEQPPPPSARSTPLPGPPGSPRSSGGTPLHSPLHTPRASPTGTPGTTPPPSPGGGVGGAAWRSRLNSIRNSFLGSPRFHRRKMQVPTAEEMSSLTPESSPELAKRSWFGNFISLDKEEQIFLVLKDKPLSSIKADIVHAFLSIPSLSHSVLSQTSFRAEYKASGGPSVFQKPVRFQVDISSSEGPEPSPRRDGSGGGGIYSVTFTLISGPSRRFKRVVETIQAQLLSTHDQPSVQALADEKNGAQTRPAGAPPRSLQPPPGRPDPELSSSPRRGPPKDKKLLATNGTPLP

[3] = molecular target: T2, CHEK1 (CHK1) CHK1 checkpoint homolog (UniProt O14757 1-476, limits assumed)
T2 sequence (looked up): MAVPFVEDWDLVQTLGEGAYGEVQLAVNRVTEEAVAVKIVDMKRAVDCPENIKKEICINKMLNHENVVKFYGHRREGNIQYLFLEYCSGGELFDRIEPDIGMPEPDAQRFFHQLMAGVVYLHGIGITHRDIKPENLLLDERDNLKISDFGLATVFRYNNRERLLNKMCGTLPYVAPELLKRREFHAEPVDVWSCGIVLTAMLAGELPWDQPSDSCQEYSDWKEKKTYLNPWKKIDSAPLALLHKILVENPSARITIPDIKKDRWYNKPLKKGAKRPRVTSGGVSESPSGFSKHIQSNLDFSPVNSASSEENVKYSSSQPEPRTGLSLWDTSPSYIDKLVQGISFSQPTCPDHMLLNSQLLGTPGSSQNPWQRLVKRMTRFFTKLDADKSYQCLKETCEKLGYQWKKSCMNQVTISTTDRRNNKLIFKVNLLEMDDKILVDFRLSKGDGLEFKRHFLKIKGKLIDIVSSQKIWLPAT

MAPKAPK3 = MAPKAPK3 (UniProt Q16644 1-382, limits assumed)
CHEK2 (CHK2) = CHEK2 (CHK2) (UniProt O96017 1-543, limits assumed)
ADRBK1 (GRK2) = molecular target: T3, ADRBK1 (GRK2) (UniProt P25098 1-689, limits assumed)
T3 sequence (looked up): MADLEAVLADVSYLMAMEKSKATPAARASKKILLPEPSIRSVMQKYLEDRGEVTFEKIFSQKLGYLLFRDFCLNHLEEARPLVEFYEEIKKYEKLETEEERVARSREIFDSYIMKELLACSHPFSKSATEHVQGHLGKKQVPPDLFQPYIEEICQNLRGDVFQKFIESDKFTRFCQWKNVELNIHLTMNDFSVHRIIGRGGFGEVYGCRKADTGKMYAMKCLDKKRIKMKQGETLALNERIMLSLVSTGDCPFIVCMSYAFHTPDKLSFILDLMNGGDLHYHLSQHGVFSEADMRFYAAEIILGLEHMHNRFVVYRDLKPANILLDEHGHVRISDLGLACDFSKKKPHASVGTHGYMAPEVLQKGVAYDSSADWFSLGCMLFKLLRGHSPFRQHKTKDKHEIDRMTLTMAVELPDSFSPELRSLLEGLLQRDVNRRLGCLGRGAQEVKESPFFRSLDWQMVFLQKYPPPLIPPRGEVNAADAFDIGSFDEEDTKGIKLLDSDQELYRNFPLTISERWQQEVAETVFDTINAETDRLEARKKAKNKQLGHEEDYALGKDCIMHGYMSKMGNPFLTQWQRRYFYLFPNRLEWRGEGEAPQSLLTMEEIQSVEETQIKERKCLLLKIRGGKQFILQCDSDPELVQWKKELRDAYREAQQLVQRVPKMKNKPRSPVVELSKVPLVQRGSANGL

RPS6KA5 (MSK1), sequence (O75582 whole entry): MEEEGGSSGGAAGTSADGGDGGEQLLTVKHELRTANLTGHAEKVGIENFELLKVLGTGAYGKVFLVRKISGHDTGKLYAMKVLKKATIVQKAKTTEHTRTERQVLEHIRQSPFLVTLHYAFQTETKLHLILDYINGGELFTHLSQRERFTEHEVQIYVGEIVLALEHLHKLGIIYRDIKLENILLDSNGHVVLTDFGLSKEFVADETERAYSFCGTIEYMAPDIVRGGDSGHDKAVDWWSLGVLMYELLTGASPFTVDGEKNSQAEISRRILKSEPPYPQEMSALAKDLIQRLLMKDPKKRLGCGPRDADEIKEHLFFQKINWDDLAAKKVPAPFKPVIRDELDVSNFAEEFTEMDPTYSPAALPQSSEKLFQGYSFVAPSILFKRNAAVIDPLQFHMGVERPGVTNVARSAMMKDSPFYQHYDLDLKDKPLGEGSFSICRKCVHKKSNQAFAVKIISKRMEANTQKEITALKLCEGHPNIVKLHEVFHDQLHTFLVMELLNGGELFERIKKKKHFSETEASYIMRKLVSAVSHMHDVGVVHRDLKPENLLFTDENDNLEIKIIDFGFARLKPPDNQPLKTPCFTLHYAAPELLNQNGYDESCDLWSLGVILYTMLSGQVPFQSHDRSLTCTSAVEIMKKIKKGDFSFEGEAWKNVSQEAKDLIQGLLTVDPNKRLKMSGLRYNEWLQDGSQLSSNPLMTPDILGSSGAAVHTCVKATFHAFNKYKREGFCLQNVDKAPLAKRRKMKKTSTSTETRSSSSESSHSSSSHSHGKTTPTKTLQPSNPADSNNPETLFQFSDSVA
CHEK2 (CHK2), sequence (O96017 whole entry): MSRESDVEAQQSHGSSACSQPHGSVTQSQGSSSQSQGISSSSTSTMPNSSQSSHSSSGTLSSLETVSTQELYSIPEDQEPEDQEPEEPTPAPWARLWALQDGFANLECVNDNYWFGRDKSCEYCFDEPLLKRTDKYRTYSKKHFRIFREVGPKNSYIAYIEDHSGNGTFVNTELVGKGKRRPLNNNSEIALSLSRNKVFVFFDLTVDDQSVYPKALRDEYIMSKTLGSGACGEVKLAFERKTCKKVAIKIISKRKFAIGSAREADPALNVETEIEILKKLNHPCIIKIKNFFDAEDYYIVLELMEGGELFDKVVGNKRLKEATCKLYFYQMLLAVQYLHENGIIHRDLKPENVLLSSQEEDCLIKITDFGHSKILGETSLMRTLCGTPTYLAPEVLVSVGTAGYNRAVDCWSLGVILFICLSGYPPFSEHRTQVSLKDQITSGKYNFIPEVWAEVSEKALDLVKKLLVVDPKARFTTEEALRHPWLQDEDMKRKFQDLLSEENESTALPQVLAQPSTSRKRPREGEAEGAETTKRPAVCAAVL
ABL1 G250E, sequence (P00519 whole entry G250E): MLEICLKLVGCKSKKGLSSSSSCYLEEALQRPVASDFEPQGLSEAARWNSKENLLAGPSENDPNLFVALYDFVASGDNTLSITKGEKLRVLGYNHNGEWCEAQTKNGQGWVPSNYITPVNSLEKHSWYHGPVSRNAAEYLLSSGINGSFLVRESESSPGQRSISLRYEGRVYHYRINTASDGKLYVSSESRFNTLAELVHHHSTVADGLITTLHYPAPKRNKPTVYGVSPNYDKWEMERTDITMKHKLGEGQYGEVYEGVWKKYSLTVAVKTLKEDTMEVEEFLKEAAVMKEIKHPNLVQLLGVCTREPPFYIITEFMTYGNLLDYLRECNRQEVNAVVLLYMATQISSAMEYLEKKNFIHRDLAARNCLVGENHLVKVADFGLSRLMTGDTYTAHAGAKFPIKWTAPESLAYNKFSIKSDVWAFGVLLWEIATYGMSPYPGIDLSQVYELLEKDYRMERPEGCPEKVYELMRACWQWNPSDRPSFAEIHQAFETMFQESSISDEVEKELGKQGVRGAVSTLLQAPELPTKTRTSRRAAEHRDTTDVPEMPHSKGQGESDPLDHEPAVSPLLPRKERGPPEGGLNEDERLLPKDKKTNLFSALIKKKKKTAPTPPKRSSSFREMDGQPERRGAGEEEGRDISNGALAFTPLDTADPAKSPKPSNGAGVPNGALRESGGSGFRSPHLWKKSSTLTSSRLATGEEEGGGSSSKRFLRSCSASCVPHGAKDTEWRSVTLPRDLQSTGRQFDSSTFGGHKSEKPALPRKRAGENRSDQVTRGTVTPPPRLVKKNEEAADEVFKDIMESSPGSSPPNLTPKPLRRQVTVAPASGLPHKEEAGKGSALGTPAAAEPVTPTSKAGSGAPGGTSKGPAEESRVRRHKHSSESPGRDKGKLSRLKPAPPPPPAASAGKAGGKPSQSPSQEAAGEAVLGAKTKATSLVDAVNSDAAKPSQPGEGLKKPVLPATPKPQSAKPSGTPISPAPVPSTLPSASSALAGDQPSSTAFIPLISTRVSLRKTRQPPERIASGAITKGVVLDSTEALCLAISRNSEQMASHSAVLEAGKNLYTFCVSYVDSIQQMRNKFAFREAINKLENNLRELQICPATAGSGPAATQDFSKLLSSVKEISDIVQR
MAPKAPK3, sequence (Q16644 whole entry): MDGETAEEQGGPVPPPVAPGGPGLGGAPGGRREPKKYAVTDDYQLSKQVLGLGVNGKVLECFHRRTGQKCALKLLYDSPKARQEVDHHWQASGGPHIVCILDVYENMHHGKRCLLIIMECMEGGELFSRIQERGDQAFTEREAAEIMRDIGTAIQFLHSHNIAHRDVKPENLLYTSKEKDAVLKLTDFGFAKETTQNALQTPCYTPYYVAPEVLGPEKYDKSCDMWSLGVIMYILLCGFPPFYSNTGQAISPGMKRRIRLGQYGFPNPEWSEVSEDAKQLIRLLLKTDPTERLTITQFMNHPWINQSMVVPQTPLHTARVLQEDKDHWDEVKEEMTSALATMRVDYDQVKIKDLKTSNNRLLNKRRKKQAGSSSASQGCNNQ
MINK1 Misshapen-like kinase 1, sequence (Q8N4C8 1-320 limits assumed): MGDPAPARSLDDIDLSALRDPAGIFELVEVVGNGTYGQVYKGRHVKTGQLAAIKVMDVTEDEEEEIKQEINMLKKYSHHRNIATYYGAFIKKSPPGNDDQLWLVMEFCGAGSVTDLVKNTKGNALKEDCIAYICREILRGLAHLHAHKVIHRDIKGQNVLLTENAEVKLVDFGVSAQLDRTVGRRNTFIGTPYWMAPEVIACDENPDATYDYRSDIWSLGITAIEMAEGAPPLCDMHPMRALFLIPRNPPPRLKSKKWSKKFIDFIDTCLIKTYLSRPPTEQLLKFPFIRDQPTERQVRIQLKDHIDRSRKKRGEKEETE
CAMK1D (CaMKI delta) Calcium/calmodulin-dependent protein kinase I delta, sequence (Q8IU85 whole entry, stated change not applied): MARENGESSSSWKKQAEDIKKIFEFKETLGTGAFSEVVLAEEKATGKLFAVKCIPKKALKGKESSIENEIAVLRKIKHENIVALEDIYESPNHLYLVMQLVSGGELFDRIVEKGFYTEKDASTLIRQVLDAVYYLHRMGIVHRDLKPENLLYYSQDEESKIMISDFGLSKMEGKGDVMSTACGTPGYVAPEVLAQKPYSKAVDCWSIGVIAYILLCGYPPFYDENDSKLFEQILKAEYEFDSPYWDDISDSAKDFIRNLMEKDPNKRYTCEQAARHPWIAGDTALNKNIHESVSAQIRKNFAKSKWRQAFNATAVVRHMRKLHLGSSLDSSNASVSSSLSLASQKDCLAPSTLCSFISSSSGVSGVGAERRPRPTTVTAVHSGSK

## SGRPPMIVWFNRPFLIAVSHTHGQTILFMAKVINPVGA [D3 peptide]
ABL1 G250E
  % Inhibition mean: 50.7%
PRKCA (PKC alpha)
  % Inhibition mean: 45.1%
[1]
  % Inhibition mean: 101%
[2]
  % Inhibition mean: 98%
RPS6KA5 (MSK1)
  % Inhibition mean: 85%
BRSK1 (SAD1)
  % Inhibition mean: 83.5%
[3]
  % Inhibition mean: 74%
MAPKAPK3
  % Inhibition mean: 64.1%
CHEK2 (CHK2)
  % Inhibition mean: 62.1%
ADRBK1 (GRK2)
  % Inhibition mean: 56.1%
